In paper PMC10307625, “Inhibiting membrane rupture with NINJ1 antibodies limits tissue injury” (Nature, 2023):

Target: the molecule itself
Experiment: SEC; purified Flag–NINJ1 alone on Superose 6 Increase 10/300 GL; 20 mM HEPES pH 7.5, 150 mM NaCl, 0.005% LMNG, 0.0005% CHS; peak at 8.5 ml retention volume

B1: N-terminally Flag-tagged mouse NINJ1 (natural protein, UniProt O70131 1-152, looked up)
chain: MESGTEEYELNGDLRPGSPGSPDALPPRWGLRNRPINVNHYANKKSAAESMLDIALLMANASQLKAVVEQGNDFAFFVPLVVLISISLVLQIGVGVLLIFLVKYDLNNPAKHAKLDFLNNLATGLVFIIVVVNIFITAFGVQKPVMDVAPRQ
notes: NINJ1 (ninjurin-1), mouse, expressed from pRK-Flag-mNINJ1; Membrane protein solubilised in 1% LMNG / 0.1% CHS; the oligomer size is heterogeneous and no copy number is told; also called Flag–NINJ1; recombinant NINJ1; source: Expi293F cells, transiently transfected, purified (anti-Flag M2 resin, Superose 6 SEC) in LMNG/CHS; not shown: FLAG, N-terminal, kept
**Q.** Does B1 bind?
**A.** binds
